Paper PMC4877109, “Structure of the Cellulose Synthase Complex of Gluconacetobacter hansenii at 23.4 Å Resolution” (PLoS ONE, 2016)

Legend:
[1] = molecular target: T1, AcsAB complex (AcsA + AcsB, cellulose synthase) (Novacetimonas hansenii, UniProt Q76KJ8); assay: UDP-14C-glucose incorporation with and without c-di-GMP; format: biochemical; settings: allosteric activator (30 μM); 20 mM MgCl2, 2 mM UDP-glucose, pH 7.5, 30 °C
T1 construct: acsAB fusion polypeptide with N-terminal His12 tag, processed in vivo into AcsA (83 kDa) and AcsB (93 kDa); homologous expression in G. hansenii (pUCD2CDHisAcsAB with acsCD); LFCE14 detergent, Co-NTA and size exclusion; ~180 kDa monomeric complex
T1 sequence (Q76KJ8 742-1550, one chain of several): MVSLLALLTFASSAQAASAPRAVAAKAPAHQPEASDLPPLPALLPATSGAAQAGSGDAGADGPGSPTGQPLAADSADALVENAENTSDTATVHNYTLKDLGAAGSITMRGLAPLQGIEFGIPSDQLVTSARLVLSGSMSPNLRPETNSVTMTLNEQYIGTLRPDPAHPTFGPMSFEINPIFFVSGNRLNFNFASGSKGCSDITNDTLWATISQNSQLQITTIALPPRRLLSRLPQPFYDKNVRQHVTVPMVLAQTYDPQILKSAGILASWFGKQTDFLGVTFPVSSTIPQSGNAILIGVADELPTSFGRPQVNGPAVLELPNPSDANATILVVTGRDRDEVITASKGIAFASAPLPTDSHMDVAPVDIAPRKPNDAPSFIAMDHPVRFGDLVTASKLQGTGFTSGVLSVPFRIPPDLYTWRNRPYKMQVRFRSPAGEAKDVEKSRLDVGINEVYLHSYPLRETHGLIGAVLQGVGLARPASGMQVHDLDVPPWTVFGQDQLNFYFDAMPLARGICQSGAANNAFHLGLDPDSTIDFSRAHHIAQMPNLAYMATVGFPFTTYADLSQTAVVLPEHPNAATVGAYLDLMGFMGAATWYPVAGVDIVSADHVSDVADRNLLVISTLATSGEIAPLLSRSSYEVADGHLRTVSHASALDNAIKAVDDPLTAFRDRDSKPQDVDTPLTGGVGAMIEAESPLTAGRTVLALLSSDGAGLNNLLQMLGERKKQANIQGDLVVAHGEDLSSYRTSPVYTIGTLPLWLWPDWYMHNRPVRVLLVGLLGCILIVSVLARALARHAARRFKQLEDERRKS

[2] = substrate: O=c1ccn([C@@H]2O[C@H](CO[P@@](=O)(O)O[P@@](=O)(O)O[C@H]3O[C@H](CO)[C@@H](O)[C@H](O)[C@H]3O)[C@@H](O)[C@H]2O)c(=O)[nH]1; assay: UDP-14C-glucose incorporation into insoluble glucan, scintillation counting, Michaelis-Menten fit; format: biochemical, Novacetimonas hansenii; settings: Mg2+ 20 mM, 30 μM c-di-GMP, 5 mM cellobiose, 20 mM Tris-HCl pH 7.5, 100 mM NaCl, 30 °C, LFCE14 detergent-purified complex, labelled compound as tracer

## Nc1nc2c(ncn2[C@@H]2O[C@@H]3COP(=O)(O)O[C@H]4[C@@H](O)[C@H](n5cnc6c(=O)[nH]c(N)nc65)O[C@@H]4COP(=O)(O)O[C@H]3[C@H]2O)c(=O)[nH]1 [c-di-GMP]
[1]
  UDP-14C-glucose incorporation with and without c-di-GMP: when c-di-GMP was omitted, the protein was not able to catalyze label incorporation into cellulose

B1: AcsAB complex (AcsA + AcsB, cellulose synthase) (Novacetimonas hansenii) (protein)
chain: MPEVRSSTQSESGMSQWMGKILSIRGAGLIIGVFGLCALIAATSVTLPPEQQLIVAFVCVVIFFIVGHKPSRRSQIFLEVLSGLVSLRYLTWRLTETLSFDTWLQGLLGTMLLVAELYALMMLFLSYFQTIAPLHRAPLPLPPNPDEWPTVDIFVPTYNEELSIVRLTVLGSLGIDWPPEKVRVHILDDGRRPEFAAFAAECGANYIARPTNEHAKAGNLNYAIGHTDGDYILIFDCDHVPTRAFLQLTMGWMVEDPKIALMQTPHHFYSPDPFQRNLSAGYRTPPEGNLFYGVVQDGNDFWDATFFCGSCAILRRTAIEQIGGFATQTVTEDAHTALKMQRLGWSTAYLRIPLAGGLATERLILHIGQRVRWARGMLQIFRIDNPLFGRGLSWGQRLCYLSAMTSFLFAVPRVIFLSSPLAFLFFGQNIIAASPLALLAYAIPHMFHAVGTASKINKGWRYSFWSEVYETTMALFLVRVTIVTLLSPSRGKFNVTDKGGLLEKGYFDLGAVYPNIILGLIMFGGLARGVYELSFGHLDQIAERAYLLNSAWAMLSLIIILAAIAVGRETQQKRNSHRIPATIPVEVANADGSIIVTGVTEDLSMGGAAVKMSWPAKLSGPTPVYIRTVLDGEELILPARIIRAGNGRGIFIWTIDNLQQEFSVIRLVFGRADAWVDWGNYKADRPLLSLMDMVLSVKGLFRSSGDIVHRSSPTKPSAGNALSDDTNNPSRKERVLKGTVK
notes: acsAB fusion polypeptide with N-terminal His12 tag, processed in vivo into AcsA (83 kDa) and AcsB (93 kDa); homologous expression in G. hansenii (pUCD2CDHisAcsAB with acsCD); LFCE14 detergent, Co-NTA and size exclusion; ~180 kDa monomeric complex
[2]
  Km: 0.12 (± 0.03) mM
  kcat: 2.9 molecules per complex per second
